# Experimental data reported in doi:10.1101/2024.04.19.590298 (bioRxiv, 2024).
# T1: Nucleocapsid a. a. 401–410 (Frag 5) (SARS-CoV-2 (YP_009724397 reference))
# T1 construct: SARS-CoV-2 nucleocapsid protein, residues 401-410; also called Fragment 5; WT (a.a. 401–410) peptide; source: synthetic peptide (Thermo Scientific)
# T1 chain: DDFSKQLQQS
# Assays:
# [1] = biological target: T2, recombinant SARS-CoV-2 nucleocapsid protein (SARS-CoV-2 (reference sequence …, UniProt P0DTC9)); assay: ELISA; peptide competition ELISA: plate coated with 0.1 ug/ml recombinant NP overnight at 4°C; 40 μL mBG17 pre-incubated 1 h at room temperature with 40 μg (approximately 30 nMol) of a single peptide, then applied to the plate 1 h at room temperature; goat anti-mouse HRP, A450; triplicate; settings: both partners purified
# T2 construct: SARS-CoV-2 nucleocapsid protein; also called NP; SARS-CoV-2 NP
# [2] = biological target: T1, Nucleocapsid a. a. 401–410 (Frag 5); assay: as above; settings: both partners purified
binder,measurement,setting,value
"anti-SARS-CoV-2 nucleocapsid protein (NP) monoclonal mouse antibody mBG17 (recombinant) (antibody, V domains shown, Whole antibody, detected with goat anti-mouse HRP; The scFv forms were used in calculations only; also called recombinant mBG17) VH: EVKLEESGGGLVQPGGSMKFSCVASGFTFSDYWMNWVRQSPDKGLEWVAEIRLKSNNYATHYAASVKGRFTISRDDSKSSVYLQMNNLRAEDSGIYYCTRSAMDYWGQGTSVTVSS VL: DIVMSQSPSSLAVSVGEKITMSCKSSQSLLYTSDQKNYLAWFQQKPGQSPKLLIFWASTRDSGVPDRFTGSGSGTDFTLTISSVKAEDLAVYYCQQFYNYPRTFGGGTKLEIK",binding result,[1],binds
same,binding result,[2],binds
